Patent CN114989291A (ZHEJIANG ANWEILUO DIAGNOSTIC TECH CO LTD, dated 2022)

Legend:
Assay in all cases: cell-based or functional assay
[1] = biological target: SARS-CoV-2 S蛋白, 突变株 B.1.1.7 (SARS-CoV-2)
[2] = biological target: SARS-CoV-2 S蛋白, 突变株 B.1.525 (SARS-CoV-2)
SARS-CoV-2 S蛋白, 突变株 P.1 = SARS-CoV-2 S蛋白, 突变株 P.1 (SARS-CoV-2)
[3] = biological target: SARS-CoV-2 S蛋白, 突变株 B.1.617.2 (SARS-CoV-2)
[4] = biological target: SARS-CoV-2 S蛋白, 突变株 B.1.351 (SARS-CoV-2)

B1: 抗SARS-CoV-2全人源化单克隆抗体1B3 (antibody, V domains shown)
VH: VQLVESGGGVVQPGRSLRLSCAASGFTFSSYAMHWVRQAPGKGLEWVAVISYDGSNKYYADSVKGRFTISRDNSKNTLYLQMNSLRAEDTAVYYCAKVAGGPYYYDSSGRDWYFDLWGRGTLVTVSA
VL: DIQMTQSPSSLSASVGDRVSITCRASQSISSFLNWFQQKPGKAPNLLIYAASSLESGVPSRFSGSGSGTDFTLTISSLQPEDFATYYCQQSYSAPPTFGQGTRLEIKR
- EC50, 假病毒细胞模型中和活性 (luciferase, ACE2-293T细胞) [1]: 2.51 mg/L
- EC50, 假病毒细胞模型中和活性 (luciferase, ACE2-293T细胞) [2]: 1.7 mg/L
- EC50, 假病毒细胞模型中和活性 (luciferase, ACE2-293T细胞) (SARS-CoV-2 S蛋白, 突变株 P.1): 3.83 mg/L
- EC50, 假病毒细胞模型中和活性 (luciferase, ACE2-293T细胞) [3]: 1.69 mg/L
- EC50, 假病毒细胞模型中和活性 (luciferase, ACE2-293T细胞) [4]: 2.05 mg/L
